Where two headings read alike, the source gives them in different places.
What was measured:
human DC-SIGN [1] = target: T1, human DC-SIGN (Homo sapiens, UniProt Q9NNX6); assay: FACS binding to K562 cells expressing human DC-SIGN; conditions: FACS MFI
T1 construct: expressed in transfected cells
T1 sequence (Q9NNX6 1-404): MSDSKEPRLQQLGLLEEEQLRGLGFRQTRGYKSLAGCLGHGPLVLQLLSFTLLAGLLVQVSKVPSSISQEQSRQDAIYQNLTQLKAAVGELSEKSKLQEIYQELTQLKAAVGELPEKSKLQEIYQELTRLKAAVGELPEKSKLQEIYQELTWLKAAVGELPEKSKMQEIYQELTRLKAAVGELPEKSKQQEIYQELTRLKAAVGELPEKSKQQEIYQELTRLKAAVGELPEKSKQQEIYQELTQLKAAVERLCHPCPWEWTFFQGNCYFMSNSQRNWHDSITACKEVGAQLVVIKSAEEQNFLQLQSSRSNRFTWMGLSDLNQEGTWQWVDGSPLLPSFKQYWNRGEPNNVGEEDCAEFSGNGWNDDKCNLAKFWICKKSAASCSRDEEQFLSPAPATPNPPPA
Description: (§1) The affinity of various antibodies and ADCs to DC-SIGN and its species orthologues was determined using FACS. Purified IgGs were titrated to determine EC50 values for binding to cell surface expressed DC-SIGN.
(§2) For this purpose, human DC-SIGN expressing or cynomolgus monkey DC-SIGN expressing stable CHO cell lines or K562 expressing DC-SIGN or K562 expressing L-SIGN cell lines were checked for density and viability using VICELL (Beckman Coulter), and washed once with 4° C. PBS. Cells were stained with DAPI (0.5 ug/mL) diluted in PBS for 30 min on ice. Cells were diluted into 4° C. FACS buffer (PBS, 10 mM EDTA, 2% FBS). 125 μl of cells were seeded (10,000 cells/well) into 96-well v-bottom plates (Nunc cat#442587) and centrifuged for 4 min at 1500 rpm at 4° C. Supernatant was removed. Cells were incubated with a serial dilution of each anti-DC-SIGN antibody in FACS buffer at concentrations ranging across several logs with a top concentration no higher than 50 μg/mL for 60 minutes at 4° C. Following incubation, cells were spun down (1500 rpm, 4 min, 4° C.) and washed two times with FACS buffer. A fluorophore-conjugated anti-hFc gamma-AF-647 (Southern Biotechnology) detection antibody was added at 1:400 and samples were incubated for 1 h on ice in the dark. Following incubation, FACS buffer was added, and the cells were spun down (1500 rpm, 4 min, 4° C.) and washed two times with FACS buffer. After the final wash, cells were resuspended in Fixative Buffer (Biolegend, 420801) and 90 μl of FACS buffer followed by readout on the flow cytometry machine (BD LSRFortessa Cell Analyzer; Cat #647177). Geometric Mean fluorescence intensity (MFI) of live, single cells was calculated in Flowjo 10.4.2 and exported into Graphpad Prism7 for EC50 determination.

[2] = target: T2, DC-SIGN Carbohydrate Recognition Domain (CRD) (Homo sapiens, UniProt Q9NNX6); assay: Biacore affinity to DC-SIGN Carbohydrate Recognition Domain; format: binding; conditions: 25° C.
T2 construct: The DC-SIGN CRD was captured via the His tag; AviTag (C)
T2 sequence (Q9NNX6 with tags, fused parts or gaps): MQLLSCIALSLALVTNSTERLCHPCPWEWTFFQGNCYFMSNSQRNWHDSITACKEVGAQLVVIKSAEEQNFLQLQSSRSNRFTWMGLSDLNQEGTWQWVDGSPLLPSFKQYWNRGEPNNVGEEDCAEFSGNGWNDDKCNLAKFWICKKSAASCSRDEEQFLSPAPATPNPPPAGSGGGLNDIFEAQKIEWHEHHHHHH
Description: The affinity of various antibodies to DC-SIGN Carbohydrate Recognition Domain (CRD) was determined using Biacore. Purified IgGs for the parental antibodies were titrated to determine Kd values for binding to purified antigen domain by two methods described below.
In method 1 DC-SIGN was used as the ligand (surface attached) and the antibody the analyte (injected at different concentrations). The DC-SIGN CRD was captured via the His tag on a CM5 chip that was prepared by immobilizing 12000RU NeutrAvidin followed by capturing ˜550RU of Tris-NTA biotin. Fresh DC-SIGN was used for each dose. Each cycle consisted of charging the surface with a 120s pulse of 5 mM NiCl2, capturing the same amount of DC-SIGN, injecting the antibody at the desired concentration, and stripping the Ni^2+ with pulses of 350 mM EDTA and 500 mM imidazole to remove all DC-SIGN. Antibodies were injected at concentrations between 250 and 31 nM for 180s and allowed to dissociate for 600s. The reverse orientation was used in method 2-antibody the ligand and DC-SIGN the analyte. A CM5 chip was first prepared with mouse anti-human IgG Fc and used to capture the antibodies. […] Kinetic parameters were calculated using the 8K analysis software.

[3] = tested on: cynomolgus monkey DC-SIGN; assay: FACS binding to CHO cells stably expressing cynomolgus monkey DC-SIGN; conditions: FACS MFI, average
Description: as §1, §2
In a similar experiment the antibodies were tested for cross-reactivity using engineered isogenic matched cell line.

human DC-SIGN [4] = target: T1, human DC-SIGN; assay: FACS binding to CHO cells stably expressing human DC-SIGN; conditions: FACS MFI, average
Description: as §1, §2

Sequence of cynomolgus monkey DC-SIGN (as listed by the source): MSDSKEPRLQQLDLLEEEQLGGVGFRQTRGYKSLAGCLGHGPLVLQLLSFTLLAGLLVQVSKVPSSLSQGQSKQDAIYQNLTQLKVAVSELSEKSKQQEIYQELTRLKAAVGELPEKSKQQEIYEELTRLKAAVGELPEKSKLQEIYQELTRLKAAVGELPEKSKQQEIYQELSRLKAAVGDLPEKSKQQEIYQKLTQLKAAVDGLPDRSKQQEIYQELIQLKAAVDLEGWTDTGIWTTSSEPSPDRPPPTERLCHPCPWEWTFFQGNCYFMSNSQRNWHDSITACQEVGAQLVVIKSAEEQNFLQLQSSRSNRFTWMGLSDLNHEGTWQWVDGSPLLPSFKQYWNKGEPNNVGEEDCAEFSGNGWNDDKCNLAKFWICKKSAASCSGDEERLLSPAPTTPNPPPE

human DC-SIGN K562 EC50 (human DC-SIGN [1]): >10 µg/mL | Kd ([2]; method 1: DC-SIGN CRD captured on chip, antibody as analyte, read-out: high density DC-SIGN CRD on chip): 0.111 µM | Kd ([2]; method 2: antibody captured on chip, DC-SIGN CRD as analyte, read-out: Ab on chip): 47.6 µM | cyno DC-SIGN CHO EC50 (ug/mL) ave. [3]: 15.69 µg/mL | human DC-SIGN CHO EC50 (ug/mL) ave. (human DC-SIGN [4]): 0.15 µg/mL
B1: 892D15: anti-DC-SIGN antibody; All antibodies except 892D15 and 942K11 bind human and cynomolgus monkey DC-SIGN similarly; headings print 952D15 (antibody)
heavy: QVTLRESGPALVKPTQTLTLTCTFSGFSPSTSGMSVSWIRQPPGKALEWLALIDWDDDKYFSTSLKTRLTISKDTSKNQVVLTMTNMDPVDTATYYCARAHSGSYFDYWGQGTLVTVSSASTKGPSVFPLAPSSKSTSGGTAALGCLVKDYFPCPVTVSWNSGALTSGVHTFPAVLQSSGLYSLSSVVTVPSSSLGTQTYICNVNHKPSNTKVDKRVEPKSCDKTHTCPPCPAPELLGGPSVFLFPPKPKDTLMISRTPEVTCVVVAVSHEDPEVKFNWYVDGVEVHNAKTKPREEQYNSTYRVVSVLTVLHQDWLNGKEYKCKVSNKALAAPIEKTISKAKGQPREPQVYTLPPSREEMTKNQVSLTCLVKGFYPCDIAVEWESNGQPENNYKTTPPVLDSDGSFFLYSKLTVDKSRWQQGNVFSCSVMHEALHNHYTQKSLSLSPGK
light: DIQMTQSPSTLSASVGDRVTITCRASQSISNWLAWYQQKPGKAPKLLIYKASSLESGVPSRFSGSGSGTEFTLTISSLQPDDFATYYCQQFNSYWTFGQGTKVEIKRTVAAPSVFIFPPSDEQLKSGTASVVCLLNNFYPREAKVQWKVDNALQSGNSQESVTEQDSKDSTYSLSSTLTLSKADYEKHKVYACEVTHQGLSSPVTKSFNRGEC

Reference: patent US20210170043A1, “DC-SIGN ANTIBODY CONJUGATES COMPRISING STING AGONISTS” (NOVARTIS AG, priority 2018, published 2021)
